We go through one molecule from patent US20120064065A1 (AC IMMUNE S A, published 2012).

For assay [1], the target named is T1, human FcγRIIIa-V158, extracellular domain with C-terminal Gly/6xHis/GST tag (human, UniProt P08637 17-208).
T1 construct: extracellular domain; Made by Genentech; captured on the plate through an anti-GST antibody; V158 is the allotype as printed; not shown: Gly/6xHis/glutathione S transferase (GST) polypeptide tag at the C terminus
Kind of assay: ELISA, cross-linked antibody on anti-GST-captured FcγRIIIa-V158. For orientation: In an ELISA, binding on a coated surface is turned into a signal by an enzyme label.

A further assay has as its target T2, murine Aβ1-42 peptide (murine, UniProt P12023 672-713).
T2 construct: domain: Aβ1-42
T2 peptide (looked up): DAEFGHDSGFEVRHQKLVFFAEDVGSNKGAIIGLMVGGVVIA
Kind of assay: Aβ ELISA.

T1 sequence (P08637 17-208 F176V): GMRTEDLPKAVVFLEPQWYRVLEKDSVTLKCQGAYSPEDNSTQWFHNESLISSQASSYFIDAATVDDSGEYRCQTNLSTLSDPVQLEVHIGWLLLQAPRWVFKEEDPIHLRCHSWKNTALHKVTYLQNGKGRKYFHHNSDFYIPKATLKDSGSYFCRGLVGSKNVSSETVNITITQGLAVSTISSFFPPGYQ

B1: MABT humanized anti-Aβ IgG4 monoclonal antibody (antibody)
heavy: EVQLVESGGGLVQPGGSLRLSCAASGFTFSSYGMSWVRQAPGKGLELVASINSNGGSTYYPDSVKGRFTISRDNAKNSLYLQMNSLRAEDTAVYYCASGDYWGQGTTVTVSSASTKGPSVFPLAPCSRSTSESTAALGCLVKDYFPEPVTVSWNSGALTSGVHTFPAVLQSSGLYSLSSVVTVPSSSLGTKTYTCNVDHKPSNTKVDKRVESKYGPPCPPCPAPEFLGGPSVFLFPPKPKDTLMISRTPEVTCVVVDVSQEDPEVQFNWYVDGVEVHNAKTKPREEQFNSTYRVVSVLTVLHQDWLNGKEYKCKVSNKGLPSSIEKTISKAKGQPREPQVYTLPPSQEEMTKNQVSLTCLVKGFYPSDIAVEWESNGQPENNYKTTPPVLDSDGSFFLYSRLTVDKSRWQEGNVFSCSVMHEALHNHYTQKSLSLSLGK
light: DIVMTQSPLSLPVTPGEPASISCRSSQSLVYSNGDTYLHWYLQKPGQSPQLLIYKVSNRFSGVPDRFSGSGSGTDFTLKISRVEAEDVGVYYCSQSTHVPWTFGQGTKVEIKRTVAAPSVFIFPPSDEQLKSGTASVVCLLNNFYPREAKVQWKVDNALQSGNSQESVTEQDSKDSTYSLSSTLTLSKADYEKHKVYACEVTHQGLSSPVTKSFNRGEC
notes: also called anti-Aβ MABT; MABT IgG4
Regarding B1, the binding result (in assay [1]; with murine Aβ1-42 peptide) was “binds” in each case.
